Values of other authors in paper PMC4557399.
pKd: −log10 of the molar value.

Legend:
[1] = biological target: F1-ATP synthase beta subunit (UniProt P06576); assay: surface plasmon resonance
[2] = biological target: F1-ATP synthase beta subunit (Bos taurus) (UniProt P00829); assay: bovine retinal endothelial cell binding
Chain of F1-ATP synthase beta subunit (Bos taurus) (P00829 47-528): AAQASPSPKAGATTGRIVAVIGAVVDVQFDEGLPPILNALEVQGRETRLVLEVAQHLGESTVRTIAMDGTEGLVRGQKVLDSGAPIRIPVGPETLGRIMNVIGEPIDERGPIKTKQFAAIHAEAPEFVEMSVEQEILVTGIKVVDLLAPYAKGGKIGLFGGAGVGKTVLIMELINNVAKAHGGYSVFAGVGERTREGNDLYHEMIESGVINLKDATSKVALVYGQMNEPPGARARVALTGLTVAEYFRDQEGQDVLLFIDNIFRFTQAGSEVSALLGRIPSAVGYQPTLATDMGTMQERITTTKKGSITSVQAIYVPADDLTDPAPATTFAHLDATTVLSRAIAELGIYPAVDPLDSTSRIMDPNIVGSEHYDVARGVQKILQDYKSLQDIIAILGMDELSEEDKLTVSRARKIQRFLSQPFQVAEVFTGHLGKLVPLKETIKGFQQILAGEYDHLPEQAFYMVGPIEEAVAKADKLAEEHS

Chain of PEDF (P36955 20-418): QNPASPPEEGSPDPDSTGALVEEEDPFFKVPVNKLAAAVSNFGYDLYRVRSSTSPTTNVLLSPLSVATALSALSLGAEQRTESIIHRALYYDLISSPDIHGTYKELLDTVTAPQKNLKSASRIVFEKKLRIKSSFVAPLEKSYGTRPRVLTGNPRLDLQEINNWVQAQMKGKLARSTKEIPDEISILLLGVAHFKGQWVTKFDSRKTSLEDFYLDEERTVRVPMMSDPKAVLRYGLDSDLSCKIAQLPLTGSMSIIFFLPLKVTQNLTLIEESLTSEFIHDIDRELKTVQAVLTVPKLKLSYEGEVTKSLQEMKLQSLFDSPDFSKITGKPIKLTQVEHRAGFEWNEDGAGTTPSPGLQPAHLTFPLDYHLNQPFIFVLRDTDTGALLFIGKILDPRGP
Chain of F1-ATP synthase beta subunit (P06576 48-529): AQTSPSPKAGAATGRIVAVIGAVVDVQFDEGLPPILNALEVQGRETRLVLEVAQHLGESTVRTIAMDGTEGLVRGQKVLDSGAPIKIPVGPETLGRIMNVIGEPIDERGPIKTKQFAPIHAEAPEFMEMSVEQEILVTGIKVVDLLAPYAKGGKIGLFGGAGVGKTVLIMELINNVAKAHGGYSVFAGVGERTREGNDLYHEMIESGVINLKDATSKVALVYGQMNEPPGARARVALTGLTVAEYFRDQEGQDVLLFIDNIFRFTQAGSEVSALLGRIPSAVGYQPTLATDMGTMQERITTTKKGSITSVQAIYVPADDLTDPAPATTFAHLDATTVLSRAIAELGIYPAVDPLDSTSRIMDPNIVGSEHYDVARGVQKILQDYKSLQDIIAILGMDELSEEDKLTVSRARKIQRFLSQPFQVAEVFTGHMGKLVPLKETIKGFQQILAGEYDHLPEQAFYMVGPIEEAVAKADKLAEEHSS

Which results are given for PEDF (from UniProt P36955)?
pKd [1]: 8.82; pKd [2]: 8.40
